Results: publication PMC6398215

Target: IgG
Test: not stated; equilibrium affinity of recombinant CHO FcγRIIIa for IgG, before and after enzymatic desialylation; method and conditions only in the supplement (Fig. S16)

fold increase in equilibrium affinity against the untreated FcγRIIIa: 2 fold
Substance: enzymatically desialylated recombinant FcγRIIIa expressed in CHO cells (from UniProt P08637 17-254) (receptor)
